Test results taken from patent US20130089560A1.

Biological target: human BMPR1A, endogenous on human Saos2 cells (human) (UniProt P36894)
Test: cell-based or functional assay

UniProt P36894, sequence (P36894 24-532 limits assumed): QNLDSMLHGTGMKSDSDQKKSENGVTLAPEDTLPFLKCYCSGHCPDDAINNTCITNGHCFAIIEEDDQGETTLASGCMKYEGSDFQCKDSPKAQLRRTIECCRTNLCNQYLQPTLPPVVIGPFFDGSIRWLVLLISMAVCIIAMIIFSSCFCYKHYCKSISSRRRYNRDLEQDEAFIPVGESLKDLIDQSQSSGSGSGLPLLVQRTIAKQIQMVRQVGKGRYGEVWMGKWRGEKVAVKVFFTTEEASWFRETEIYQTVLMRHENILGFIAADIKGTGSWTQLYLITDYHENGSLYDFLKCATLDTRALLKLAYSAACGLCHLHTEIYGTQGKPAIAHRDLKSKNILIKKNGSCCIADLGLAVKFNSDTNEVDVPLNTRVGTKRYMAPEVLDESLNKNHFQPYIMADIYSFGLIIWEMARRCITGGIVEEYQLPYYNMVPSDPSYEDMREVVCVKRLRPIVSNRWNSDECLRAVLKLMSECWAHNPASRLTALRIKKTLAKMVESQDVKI

Sp7 gene expression levels in Saos2 cells (qPCR, relative to control antibody): 2.4 fold
B1: anti-BMPR1A antibody 5M107 (antibody, part only; not given: light chain and constant regions, V domains shown, part only)
VH: EVQLQQSGPELVKPGTSVKISCKASGYSFTGYYMHWVKQSQVKSLEWIGRINPDNGGRTYNQIFKDKASLTVHKSSSTAYMELHSLTSDDSAVYYCTRERGQYGNYGGFSDWGQGTLVT
